Experimental data reported in patent publication US9169496B2, “Method for the enzymatic production of butadiene” (Scientist of Fortune, S.A., priority 2011, dated 2015).

B1: Short chain alcohol dehydrogenase-like protein from Hahella chejuensis: short-chain dehydrogenase from Hahella chejuensis (Uniprot Q2SCE0; SEQ ID NO: 17) (protein, listed as Hahella chejuensis)
chain: MNYFVTGGTGFIGRFLVPKLLKRGGTVYLLVREASLPKLDELRERWNASDEQVVGVVGDLAQPMLGVSEKDAAMLRGKVGHFFHLAAIYDMQASAESQEQANIEGTRNAVKLADSLKAACFHHVSSIAAAGLYRGIFREDMFEEAEKLDNPYLRTKHESEKVVREECQTPWRVYRPGMVVGHSKTGEIDKIDGPYYFFKLIQKLRSALPQWMPTVGLEGGRINIVPVDFVVDAMDHIAHAEGEDGKCFHLTDPDPYKVGEILNIFAEAGHAPKMAMRIDARMFGFIPPMIRQGIARLPPVQRMKNAVLNDLGIPDEVMSFINYPTRFDNRETERLLKGTAIAVPRLQDYSPAIWDYWERHLDPDLHKDRTLRGAVEGRVCVITGATSGIGLSAARKLAEAGAKVVIAARTLEKLQEVKKELEELGGEVYEYSVDLSDLEDCDRFVANVLKDLGHVDVLVNNAGRSIRRSIQHAFDRFHDFERTMQLNYFGSLRLIMGFAPSMLERRRGHIVNISSIGVLTNAPRFSAYVASKAALDAFSRCAAAEFSDKNVTFTTINMPLVRTPMISPTKIYDSVPTLTPEEAADLVAEAIIHRPKRIATRLGVFAQVLHSMAPKFSEIIMNTGFKMFPDSSAATGGKDGEKPKVSTEQVAFAAIMRGIHW
B2: Short chain alcohol dehydrogenase-like protein from Marinobacter manganoxydans (SEQ ID NO: 14): short-chain dehydrogenase from Marinobacter manganoxydans (Uniprot G6YQS9) (protein)
chain: MNYFLTGGTGFIGRFLVEKLLARGGTVHVLVREQSQDKLDKLRERWGADETQVKAVIGDLTSKNLGIDAKTMKALKGKIDHFFHLAAVYDMGADEEAQQATNIEGTRAAVNAAEAMGAKHFHHVSSIAAAGLFKGIFREDMFEEAEKLDHPYLRTKHESEKVVREECKVPFRIYRPGMVIGHTATGEMDKVDGPYYFFKMIQKIRHALPQWVPTIGVEGGRLNIVPVDFVVNAMDHIAHLEGEDGKCFHLVDTDPYKVGEILNIFSEAGHAPRMGMRIDSRMFGFIPPFIRQSLKNLPPVKRLTSAILDDMGIPPSVMSFINYPTRFDARETERVLKGTGIEVPRLPDYAPVIWDYWERNLDPDLFKDRTLKGTVEGRVCVVTGATSGIGLATAQKLADAGAILVIGARKLERLKEVAAELESRGASVHAYPCDFSDMDACDEFVKTVLDNHGQVDVLVNNAGRSIRRSLDLSFDRFHDFERTMQLNYFGSVRLIMGFAPKMLENRRGHVVNISSIGVLTNAPRFSAYVASKSALDAFSR
modifications: Marinobacter manganoxydans
B3: B. subtilis: purified 4-methyl-5-(2-hydroxyethyl)thiazole kinase from Bacillus subtilis (SEQ ID NO:1) (protein, listed as Bacillus subtilis)
chain: MDAQSAAKCLTAVRRHSPLVHSITNNVVTNFTANGLLALGASPVMAYAKEEVADMAKIAGALVLNIGTLSKESVEAMIIAGKSANEHGVPVILDPVGAGATPFRTESARDIIREVRLAAIRGNAAEIAHTVGVTDWLIKGVDAGEGGGDIIRLAQQAAQKLNTVIAITGEVDVIADTSHVYTLHNGHKLLTKVTGAGCLLTSVVGAFCAVEENPLFAAIAAISSYGVAAQLAAQQTADKGPGSFQIELLNKLSTVTEQDVQEWATIERVTVS
B4: Short chain alcohol dehydrogenase-like protein from Marinobacter algicola (SEQ ID NO: 16): short-chain dehydrogenase from Marinobacter algicola (Uniprot A6EUH6) (protein)
chain: MNYFLTGGTGFIGRFLVEKLLARGGTVHVLVREQSQEKLDKLRERWGADESRVKAVIGDLTSPNLGIDAKTMKSLKGNIDHFFHLAAVYDMGADEKSQQATNIEGTHSAVNAAAAMEAGCFHHVSSIAAAGLFKGTFREDMFEEAEKLDHPYLLTKHESEKVVRESCKVPFRIYRPGMVVGHSKTGEMDKVDGPYYFFKMIQKIRHALPQWVPTIGIEGGRLNIVPVDFVVNAMDHIAHLKGEDGNCFHLVDSDPYKVGEILNIFSEAGHAPRMAMRIDSRMFGFVPPFIRQSLKNLPPVKRLTTALLDDMGIPPSVLSFINYPTRFDARETERVLKDTGIVVPRLESYAAVLWDFWERNLDPDLFKDRTLRGTVEGKVCVITGGTSGIGLATAQKLADAGAILVIGARKKERLMEVAAELEARGGNVHAYQCDFADMDDCDRFVKTVLDNHGHVDVLVNNAGRSIRRSLALSFDRFHDFERTMQLNYFGSVRLIMGFAPAMLERRRGHVVNISSIGVLTNAPRFSAYVASKSALDTFSRCAAAEWSDRNVTFTTINMPLVKTPMIAPTKIYDSVPTLTPDEAAEMVADAIVYRPKRIATRLGIFAQVMQALAPKMGEIVMNTGYRMFPDSPAAAGSRSGAKPKVSSEQVAFAAIMRGIYW
modifications: Marinobacter algicola DG893
B5: Short chain alcohol dehydrogenase-like protein from Marinobacter sp. ELB17 (SEQ ID NO: 15): short-chain dehydrogenase from Marinobacter sp. ELB17 (Uniprot A3JCC5) (protein)
chain: MNYFVTGGTGFIGRFLIARLLARGAIVHVLVREQSVQKLADLREKLGADEKQIKAVVGDLTAPGLGLDKKTLKQLSGKIDHFFHLAAIYDMSASEESQQAANIDGTRAAVAAAEALGAGIFHHVSSIAVAGLFKGTFREDMFAEAGKLDHPYFSTKHESERVVRDECKLPFRIYRPGMVIGDSATGEMDKVDGPYYFFKMIQKIRGALPQWVPTIGLEGGRLNIVPVNFVADALDHIAHLPDEDGKCFHLVDSDPYKVGEILNIFCEAGHAPKMGMRIDSRMFGFVPPFIRQSLKNLPPVKRMGRALLDDLGIPASVLSFINYPTRFDARETERVLQGTGIEVPRLPDYAPVIWDYWERNLDPDLFTDRTLRGTVEGKVCVVTGATSGIGLATAEKLADAGAILVIGARTQETLDQVSAQLNARGADVHAYQCDFADMDACDRFIQTVSENHGAVDVLINNAGRSIRRSLDKSFDRFHDFERTMQLNYFGSLRLIMGFAPAMLERRRGHIINISSIGVLTNAPRFSAYVASKAALDSFSRCAAAEWSDRHVCFTTINMPLVKTPMIAPTKIYDSVPTLSPEEAADMVVNAIVYRPKRIATRMGVFAQVLNAVAPKASEILMNTGYKMFPDSMPKKGKEVSAEKGASTDQVAFAAIMRGIHW
modifications: Marinobacter sp. ELB17
B6: Rh. leguminosarum: purified 4-methyl-5-(2-hydroxyethyl)thiazole kinase from Rhizobium leguminosarum (SEQ ID NO:3) (protein, listed as Rhizobium leguminosarum)
chain: MQTRTTPGAMLKAMREKPPLVQCITNYVAMNIAANVLLAAGASPAMVHAAEEAGEFAAIASALTINIGTLSTQWIDGMQAAAKAATSAGKPWVLDPVAHYATAFRRNAVAELLALKPTIIRGNASEIIALAGGESRGQGVDSRDPVEQAEGSARWLAERQRAVVAVTGAVDFVTDGERAVRIEGGSALMPQVTALGCSLTCLVGAFAATAPEDIFGATVAALSTFAIAGEEAALGAAGPGSFSWRFLDALAALDAETLDARARISAA
B7: E. coli: purified 4-methyl-5-(2-hydroxyethyl)thiazole kinase from Escherichia coli (SEQ ID NO:2) (protein)
chain: MQVDLLGSAQSAHALHLFHQHSPLVHCMTNDVVQTFTANTLLALGASPAMVIETEEASQFAAIASALLINVGTLTQPRAQAMRAAVEQAKSSQTPWTLDPVAVGALDYRRHFCHELLSFKPAAIRGNASEIMALAGIANGGRGVDTTDAAANAIPAAQTLARETGAIVVVTGEMDYVTDGHRIIGIHGGDPLMTKVVGTGCALSAVVAACCALPGDTLENVASACHWMKQAGERAVARSEGPGSFVPHFLDALWQLTQEVQA
modifications: E. coli

How the values were obtained:
[1] = Crotonyl-CoA reductase assay, NADPH decrease at 340 nm; format: biochemical; settings: 5 mM trans crotonyl-CoA, 0.1-0.4 mM NADPH, 0.5-1 mg/ml enzyme, 37° C., pH 7.5
Text: Sequences of short-chain dehydrogenases/reductases inferred from the genomes of prokaryotic organisms were generated by oligonucleotide concatenation to fit the codon usage of E. coli. […] The genes thus synthesized were cloned in a pET25b expression vector and the proteins were produced according to the protocol described in Example 1.

[2] = Screening for crotyl alcohol phosphorylation activity (pyruvate kinase/lactate dehydrogenase coupled ADP assay); format: biochemical; settings: 37° C.; for Activity, micromole/min · mg protein: 50 mM crotyl alcohol (cis and trans mixture), 5 mM ATP, 0.05 mg/ml enzyme, pH 7.5; for ADP production in the presence of crotyl alcohol: 50 mM crotyl alcohol
Method: The release of ADP that is associated with crotyl alcohol phosphorylation was quantified using the pyruvate kinase/lactate dehydrogenase coupled assay (FIG. 5). The purified 4-methyl-5-(2-hydroxyethyl)thiazole kinases from Escherichia coli (SEQ ID NO:2), Bacillus subtilis (SEQ ID NO:1), Rhizobium leguminosarum (SEQ ID NO:3) were evaluated for their ability to phosphorylate crotyl alcohol releasing ADP. The studied enzymatic reaction was carried out under the following conditions at 37° C.: • 50 mM Tris-HCl pH 7.5 • 10 mM MgCl2 • 100 mM KCl • 5 mM ATP • 0.4 mM NADH • 1 mM Phosphoenolpyruvate • 3 U/ml Lactate dehydrogenase • 1.5 U/ml Pyruvate kinase • 50 mM crotyl alcohol, mixture cis and trans • The pH was adjusted to 7.5
Each assay was started by addition of a particular enzyme at a concentration 0.05 mg/ml and the disappearance of NADH was monitored by following the absorbance at 340 nm.

Molecule | Activity, μmol/min/mg protein [1] [μmol/min/mg protein] | Activity, micromole/min · mg protein [2] | ADP production in the presence of crotyl alcohol [2]
B1 | 4.9 |  | 
B2 | 7.5 |  | 
B3 |  | 0.014 micromole/min · mg protein | 
B4 | 4 |  | 
B5 | 1.2 |  | 
B6 |  | 0.087 micromole/min · mg protein | reproducible and significant increase in ADP production
B7 |  | 0.220 micromole/min · mg protein | reproducible and significant increase in ADP production
